Drawing on patent US20190367589A1, this text covers Kd, affinity (ELISA) and EC50 (read off the curve) for three molecules.

Assay [1] addresses rat Jagged 2 (rJAG2) (rat) (UniProt P97607). Kind of assay: drawn table 'Kd (nM)' of Fab; method not stated; the legend names the matured antibody as 4D11.
The target of assay [2] is mouse Jagged 1 (mouse). As to the kind of experiment: ELISA, ligand-Fc coated (method lists rat Jagged 1-Fc), anti-human IgG Fab-specific HRP. (In general: An ELISA detects its analyte on a solid surface through an enzyme-linked reagent.)
For assay [3], the target named is mouse Jagged 1 (mouse). Kind of assay: ELISA as for the other curves; sheet and legend say mouse Jagged 1, the method lists rat Jagged 1-Fc as the coated protein.

B1: 4D11 Fab (Fab, V domains shown)
VH: EVQLLESGGGLVQPGGSLRLSCAASGFTFSSYAMSWVRQAPGKGLEWVSSIDPEGRQTYYADSVKGRFTISRDNSKNTLYLQMNSLRAEDTAVYYCAKDIGGRSAFDYWGQGTLVTVSS
VL: DIQMTQSPSSLSASVGDRVTITCRASQSISSYLNWYQQKPGKAPKLLIYAASSLQSGVPSRFSGSGSGTDFTLTISSLQPEDFATYYCQQTVVAPPLFGQGTKVEIKR
A word on the Kd: it is a measure of binding affinity in units of concentration. A high value points to a looser complex. In turn, B1 had a dissociation constant Kd in assay [1] of less than 1 nM.

B2: anti-Jagged 32 IgG (antibody, V domains shown)
VH: EVQLLESGGGLVQPGGSLRLSCAASGFTFSSYAMSWVRQAPGKGLEWVSSIEQMGWQTYYADSVKGRFTISRDNSKNTLYLQMNSLRAEDTAVYYCAKSAAAFDYWGQGTLVTVSS
VL: DIQMTQSPSSLSASVGDRVTITCRASQSISSYLNWYQQKPGKAPKLLIYAASLQSGVPSRFSGSGSGTDFTLTISSLQPEDFATYYCQQTVVAPLTFGQGTKVEIKR
Broadly, the EC50 (read off the curve) is the concentration needed to bring the measured effect to its halfway point. A lower EC50 (read off the curve) goes with greater potency. For the molecule B2, the affinity (ELISA) with mouse Jagged 1 (mouse) [2] was more than 30 nM. The half-maximal effective concentration (EC50 (read off the curve)) with mouse Jagged 1 (mouse) [3] stood at 50 nM.

B3: anti-Jagged 13 IgG (antibody, V domains shown)
VH: EVQLLESGGGLVQPGGSLRLSCAASGFTFSSYAMSWVRQAPGKGLEWVSSIETQGPTTLYADSVKGRFTISRDNSKNTLYLQMNSLRAEDTAVYYCAKTSSAFDYWGQGTLVTVSS
VL: DIQMTQSPSSLSASVGDRVTITCRASQSISSYLNWYQQKPGKAPKLLIYASSLQSGVPSRFSGSGSGTDFTLTIGSLQPEDFATYYCQQNVATPLTFGQGTKVEIKR
For B3, the affinity (ELISA) with mouse Jagged 1 (mouse) [2] was more than 30 nM.
